The source of these data is patent US20250051454A1 (DUKE UNIVERSITY, published 2025).

For test [1], the target named is T1, HLA-E-RL9HIV single chain trimer on transfected 293T cells (human, UniProt P61769 21-119; P13747 22-358).
T1 construct: also called control HLA-E-peptide complex
The test is described as follows: flow cytometry, SCT-transfected 293T cells, MFI bar chart [E]. A general note: Flow cytometry measures light scatter and fluorescence of single cells or particles in a stream.

The target of test [2] is T2, HLA-E-RL9SIV single chain trimer on transfected 293T cells (human, UniProt P61769 21-119; P13747 22-358).
T2 construct: also called control HLA-E-peptide complex
Described as above.

In test [3] the target is T3, Sjogren's syndrome antigen (SSB) (UniProt P05455 1-408).
T3 sequence (looked up): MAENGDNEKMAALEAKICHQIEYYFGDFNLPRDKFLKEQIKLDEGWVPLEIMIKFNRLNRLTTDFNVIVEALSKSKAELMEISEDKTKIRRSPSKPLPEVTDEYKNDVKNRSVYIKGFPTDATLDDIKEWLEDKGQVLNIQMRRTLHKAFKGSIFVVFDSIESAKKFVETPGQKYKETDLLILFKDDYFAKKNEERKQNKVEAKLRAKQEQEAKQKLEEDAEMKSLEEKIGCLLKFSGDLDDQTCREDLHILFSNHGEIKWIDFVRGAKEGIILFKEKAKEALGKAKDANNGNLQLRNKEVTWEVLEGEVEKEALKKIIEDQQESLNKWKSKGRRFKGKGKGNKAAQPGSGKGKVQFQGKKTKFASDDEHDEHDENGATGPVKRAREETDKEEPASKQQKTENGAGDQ
The test is described as follows: AtheNA autoantigen assay [panel H].

Test [4] concerns the target T4, scleroderma 70 (Scl-70) (UniProt P11387 2-765).
T4 sequence (looked up): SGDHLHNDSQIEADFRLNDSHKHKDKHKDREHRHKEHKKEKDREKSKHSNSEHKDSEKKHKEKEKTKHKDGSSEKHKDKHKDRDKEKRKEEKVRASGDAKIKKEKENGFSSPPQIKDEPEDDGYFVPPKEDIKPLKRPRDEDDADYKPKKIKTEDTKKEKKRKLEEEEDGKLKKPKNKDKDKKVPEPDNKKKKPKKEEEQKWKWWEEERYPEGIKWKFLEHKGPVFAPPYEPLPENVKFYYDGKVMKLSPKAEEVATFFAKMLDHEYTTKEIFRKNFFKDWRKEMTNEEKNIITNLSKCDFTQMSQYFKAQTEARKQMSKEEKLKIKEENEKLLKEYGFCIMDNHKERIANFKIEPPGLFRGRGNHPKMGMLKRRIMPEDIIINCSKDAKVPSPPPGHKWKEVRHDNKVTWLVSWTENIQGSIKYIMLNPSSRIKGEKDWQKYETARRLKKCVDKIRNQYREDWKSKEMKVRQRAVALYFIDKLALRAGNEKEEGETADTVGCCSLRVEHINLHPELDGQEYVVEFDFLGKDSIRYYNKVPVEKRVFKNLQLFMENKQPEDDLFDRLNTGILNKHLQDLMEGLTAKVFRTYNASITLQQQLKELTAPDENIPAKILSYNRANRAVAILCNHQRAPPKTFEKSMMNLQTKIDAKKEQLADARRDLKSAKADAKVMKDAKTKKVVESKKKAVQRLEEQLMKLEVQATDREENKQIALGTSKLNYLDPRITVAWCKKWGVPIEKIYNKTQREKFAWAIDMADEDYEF
The test is described as follows: AtheNA autoantigen assay [panel H].

Test [5] concerns the target T5, Jo-1 antigen (UniProt P12081 2-509).
T5 sequence (looked up): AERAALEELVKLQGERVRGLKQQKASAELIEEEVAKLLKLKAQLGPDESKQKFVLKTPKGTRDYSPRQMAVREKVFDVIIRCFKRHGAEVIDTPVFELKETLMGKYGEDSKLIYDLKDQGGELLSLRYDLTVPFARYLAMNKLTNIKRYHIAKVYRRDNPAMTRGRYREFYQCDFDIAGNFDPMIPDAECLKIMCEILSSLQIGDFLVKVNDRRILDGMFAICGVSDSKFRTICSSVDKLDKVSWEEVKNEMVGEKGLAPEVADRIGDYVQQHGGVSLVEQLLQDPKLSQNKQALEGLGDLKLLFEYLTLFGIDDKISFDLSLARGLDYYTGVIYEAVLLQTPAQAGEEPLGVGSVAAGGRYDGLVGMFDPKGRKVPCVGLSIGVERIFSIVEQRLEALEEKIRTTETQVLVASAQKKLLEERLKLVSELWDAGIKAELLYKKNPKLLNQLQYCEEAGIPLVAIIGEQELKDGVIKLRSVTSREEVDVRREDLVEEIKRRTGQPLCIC
The experiment in a line: AtheNA autoantigen assay [panel H].

For test [6], the target named is T6, centromere B (Cent B) (UniProt P07199 1-599).
T6 sequence (looked up): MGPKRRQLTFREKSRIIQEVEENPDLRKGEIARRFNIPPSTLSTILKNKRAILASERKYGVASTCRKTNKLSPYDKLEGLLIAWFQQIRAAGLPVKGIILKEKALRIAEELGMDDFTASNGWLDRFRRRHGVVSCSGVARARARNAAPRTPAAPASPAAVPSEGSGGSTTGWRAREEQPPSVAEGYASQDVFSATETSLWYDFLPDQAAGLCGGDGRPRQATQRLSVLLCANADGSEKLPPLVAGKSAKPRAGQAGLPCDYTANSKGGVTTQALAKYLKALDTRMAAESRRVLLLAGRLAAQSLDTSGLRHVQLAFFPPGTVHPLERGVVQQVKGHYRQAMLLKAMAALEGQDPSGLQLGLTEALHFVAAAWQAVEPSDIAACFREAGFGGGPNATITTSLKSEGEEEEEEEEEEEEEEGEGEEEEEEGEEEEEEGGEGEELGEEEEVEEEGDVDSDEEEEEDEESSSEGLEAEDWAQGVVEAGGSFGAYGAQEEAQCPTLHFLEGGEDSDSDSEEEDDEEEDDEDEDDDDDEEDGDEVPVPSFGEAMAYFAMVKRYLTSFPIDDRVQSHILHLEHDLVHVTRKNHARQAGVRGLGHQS
The test is described as follows: AtheNA autoantigen assay [panel H].

For test [7], the target named is T7, soluble HLA-E-VL9 complex (HLA-E*01:03 heavy chain, beta2-microglobulin, VL9 peptide …) (human).
T7 construct: also called VL9 peptide-loaded HLA-E
The test is described as follows: SPR, antibody on CM5 chip, soluble HLA-E-VL9 flowed over, 1:1 model; human IgG1 backbone 3H4. (In general: SPR reads the build-up and loss of mass on a sensor chip optically.)

Test [8] has as its target T7, soluble HLA-E-VL9 complex (HLA-E*01:03 …).
For test [9] the target is unchanged. The experiment in a line: SPR, antibody (human IgG1) on CM5 chip, soluble HLA-E-VL9 flowed over; CA123 on a human IgG1 backbone.

B1: CA176 (antibody, V domains shown)
VH: QVQLVESGGGVVQPGRSLRLSCAASGFTFSSYGMHWVRQAPGKGLEWVAVISYDGSNKYYADSVKGRFTISRDNSKNTLYLQMNSLRAEDTAVYYCAKDEGSSDFWSGYYASFDYWGQGTLVTVSS
VL: DIQMTQSPISLSASVGDRVTITCRASQDISNYLTWYQQKPGKAPKLLIYAASSLQSGVPSRFSGSGSGTDFTLTISNLQPEDFATYYCQQNYSYPCTFGQGTKVEIK
On to B1, for which the binding result in [1] and in [2] was “no binding (tested: 2 µg/ml)” in each case.

B2: CA177 (antibody, V domains shown)
VH: QVQLQESGPGLVKPSETLSLTCTVSGGSISSYYWSWIRQPPGKGLEWIGYIYYSGSTNYNPSLKSRVTISVDTSKNQFSLKLSSVTAADTAVYYCASHDYTDHAAGYWGQGTLVTVSS
VL: not shown
For the molecule B2, the binding result in [1] and in test [2] was “no binding (tested: 2 µg/ml)” each time.

B3: CA178 (antibody, V domains shown)
VH: QVQLVQSGAEVKKPGSSVKVSCKASGGTFSSYAISWVRQAPGQGLEWMGGIIPIFGTANYAQKFQGRVTITADESTSTAYMELSSLRSEDTAVYYCARDYGGSYYYEYFQHWGQGTLVTVSS
VL: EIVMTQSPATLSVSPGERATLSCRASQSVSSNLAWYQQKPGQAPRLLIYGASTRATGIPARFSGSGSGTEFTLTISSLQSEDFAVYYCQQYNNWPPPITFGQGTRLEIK
B3: the binding result in [1] and in test [2] was “no binding (tested: 2 µg/ml)” throughout.

B4: 3H4 on a human IgG1 backbone (3H4 Gwt) (antibody, V domains shown)
VH: EVQLQESGPELVKPGASVKIPCKASGYTFTDYNMDWVKQSHGKSLEWIGDINPNNGGTIYNQKFKGKATLTVDKSSSTAYMELRSLTSEDTAVYYCARPDYYGSSYGWYFDVWGTGTTVTVSS
VL: DIVITQSPSSMYASLGERVTITCKASQDINSYLSWFQQKPGKSPKTLIYRANRLVDGVPSRFSGSGSGQDYSLTISSLEYEDMGIYYCLQYDEFPLTFGAGTKLELK
notes: also called 3H4 IgG; wild-type 3H4 IgG
Usually Kd stands for the free concentration of one partner at which half of the binding sites on the other are occupied at equilibrium, for simple one-to-one binding. Higher therefore signals lower affinity. For the molecule B4, the binding result in test [3], in test [4], in [5] and in test [6] was “no binding” in each case. Moreover, binding in test [7] was characterised by a dissociation constant (Kd) of 49.8 µM.

B5: CA175 (antibody, V domains shown)
VH: EVQLVESGGGLVQPGGSLRLSCAASGFTFSTYPMNWVRQAPGKGLEWVSYISSSSSTIYYADCVKGRFTISRDNAKNSLYLQMNSLRDEDTAVYYCARYYIAYGMDVWGQGTTVTVSS
VL: DIQMTQSPSSMSASVGDRVTITCRASQGISNYLAWFQQKPGKAPKRLIYGASSLHRGVPSRFSGSGSGTEFTLTITSLQPEDFATYYCLQHNTYPRTFGQGTKVEIK
Take B5: the binding result in test [1] and in [2] was “no binding (tested: 2 µg/ml)” in each case.

B6: CA180 (antibody, V domains shown)
VH: QVQLVQSGAEVKKPGASVKVSCKASGYTFTSYGISWVRQAPGQGLEWMGWISAYNGNTNYAQKLQGRVTMTTDTSTSTAYMELRSLRSDDTAVYYCARDLGYSSSWYTSNWFDPWGQGTLVTVSS
VL: QSALTQPASVSGSPGQSITISCTGTSSDVGSYNLVSWYQQHPGKAPKLMIYEGSKRPSGVSNRFSGSKSGNTASLTISGLQAEDEADYYCCSYAGSSTVVFGGGTKLTVL
With B6, the binding result in test [1] and in test [2] was “no binding (tested: 2 µg/ml)” throughout.

B7: CA123 (human antibody on a human IgG1 backbone) (antibody, V domains shown)
VH: EVQLVESGGGLVQPGGSLRLSCAASGFTFSSYWMHWVRQAPGKGLVWVSRINSDGSSTSYADSVKGRFTISRDNAKNTLYLQMNSLRAEDTAVYYCARDQGSTSCYYCYYGMDVWGQGTTVTVSS
VL: not shown
notes: also called CA123 IgG
Broadly, the koff is a measure of how fast the partners let go of each other. Broadly, the kon is the rate constant with which the complex forms. Low values mean slow association, high ones fast association. In [8], B7 gave a koff of 0.794 s⁻¹ and a kon of 211000 M⁻¹ s⁻¹. In addition, in test [1], the binding result is “no binding (tested: 2 µg/ml)”. Besides, the binding result in [2] is on record as “no binding (tested: 2 µg/ml)”. Further, binding in test [9] was put at a Kd of 3.8 µM.
